Assay results from PMC6643034 (2019).

T1: CXCL7 (human)
T1 chain: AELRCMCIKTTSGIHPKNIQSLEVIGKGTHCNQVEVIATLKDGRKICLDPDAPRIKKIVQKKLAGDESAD

B1: P942 (natural protein)
chain: DGGNQLSGPQSSANSNEAVFCDTNCTQGTDEAWSGCRGDCFCVYVGNSTEGRCMMLSGDFDYSTPGAED
modifications: also: glycosylated
B2: P1170_IXORI (natural protein)
chain: LGDEDQLFSVEYCGTNCTQQDDGKWTPCSGKNGKCKCYHEDGKRYGLCLYTEYTDFSQYPNPEGSEIENTRPRP
B3: P675 (natural protein)
chain: GSNQLSGPQSSANSNDAVFCDTNCTQGTDGAWSGCRGDCFCVHVGNSTEGRCIELIGDFDYSTPGAED
modifications: also: glycosylated
B4: P1104 (natural protein)
chain: ESKEASASQGPGKSFKVEFCETNCTENNGVWSGCTGDCICVSVGDSKEGRCMDLGDKVIDTPVAQG
modifications: also: glycosylated
B5: CXCL4 (ligand)
chain: EAEEDGDLQCLCVKTTSQVRPRHITSLEVIKAGPHCPTAQLIATLKNGRKICLDLQAPLYKKIIKKLLES
B6: P1134 (natural protein)
chain: NEEVFTVEYCGMNCTQKSDGTWTECSGKNKDCRCYHESDAREGLCLSTEYTDFSQFETPSNSDLEAATPRPRKTLYPVRNPHGPKTRGLGYDKRILRDRVKFLI
modifications: glycosylated (periodic acid–Schiff staining)
B7: P1126 (natural protein)
chain: DGGKPQILQRTDKSTDSEWDPQTCPETCIPSKNITCSDGCVCVKLGEEEEGTCFNMTGVDWLGSPSDD
modifications: also: glycosylated
B8: P1124_IXORI (natural protein)
chain: DSKGTSDSQDSTKSIKVDFCETNCTKTDGGWTGCTGDCICVSVGDSIEGRCMDFG
B9: CXCL13 (ligand)
chain: VLEVYYTSLRCRCVQESSVFIPRRFIDRIQILPRGNGCPRKEIIVWKKNKSIVCVDPQAEWIQRMMEVLRKRSSSTLPVPVFKRKIP
B10: P1080_IXORI (natural protein)
chain: SAGSKGSSAPQSSGDSVVAEFCDTNCTMKKDGKWTECNGDCFCVHVGNETVGRCMRLDGDYDYTSSKTTRRNKKTRNGLCRLDRNRTTVDYPERNTREP
B11: P1078_IXORI (natural protein)
chain: GSKGSSAQQSSHDSIKAEFCETNCTMKTGGKWTQCHGGCFCVHVGNETVGRCIKLDGDYDYPSSKHEE
B12: P1172_IXORI (natural protein)
chain: FLLKSQLCYCLFGIELIGAGIHALHEDEIFTVDYCGTNCTKQSNGSWTTCPGNCSCYHEDGKTDGFCLSTEYTDFTQFPNLTSEEMDAATPRPE
B13: P1142 (natural protein)
chain: DGGKPQILQRTDHSTDSDWDPQMCPETCNPSKNISCSSECLCVTLGGGDETGTCFNMSGVDWLGHAQASDGHNDGGGASAWSHPQFEKLEHHHHHHHH
modifications: glycosylated (periodic acid–Schiff staining)
B14: P1086_IXORI (natural protein)
chain: GSKGQRASQVSETSITAEFCDTSCTQGTDKTWSGCSGDCFCVHVGNDTEGRCMRWDGDYPSAEEEE
B15: P1100_IXORI (natural protein)
chain: GSKGSSASQSSDNSVVAKFCDTNCTINEGGKWTECKGGCFCVHVGNETVGRCMKLDGDYDYPSPKPEE
B16: P1090_IXORI (natural protein)
chain: GSKELSGPESSENSIEAAFCDTNCTEGTDGVWSGCSAGCFCVHVGNSTVGRCMTFNGVD
B17: Evasin 3 (EVA3) (natural protein)
chain: DGGLVSTIESRTSGDGADNFDVVSCNKNCTSGQNECPEGCFCGLLGQNKKGHCYKIIGNLSGEPPVVRR
modifications: also: glycosylated
B18: CXCL11 (ligand)
chain: FPMFKRGRCLCIGPGVKAVKVADIEKASIMYPSNNCDKIEVIITLKENKGQRCLNPKSKQARLIIKKVERKNF

Columns and labels:
Experiment in all cases: BLI
CXCL6 = CXCL6 (human)
CXCL13 = molecular target: B9
CXCL11 = molecular target: B18
CXCL5 = CXCL5 (human)
CXCL1 = CXCL1 (human, UniProt P09341 35-107)
[1] = molecular target: CXC-motif chemokine ligand 10 (CXCL10) (human, UniProt P02778 22-98)
CXCL3 = CXCL3 (human, UniProt P19876 35-107)
CXCL2 = CXCL2 (human, UniProt P19875 35-107)
CXCL4 = molecular target: B5
CXCL8 = CXCL8 (human)
CXCL12 = CXCL12 (human, UniProt P48061 22-93)
P1074_IXORI = P1074_IXORI (Ixodes ricinus, UniProt A0A0K8RDH6 29-96)
CXCL7 = molecular target: T1, CXCL7

Chain of CXCL8 (human) (chain, as listed by the source): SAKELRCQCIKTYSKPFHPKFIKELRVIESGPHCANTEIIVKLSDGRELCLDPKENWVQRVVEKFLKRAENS

**Q.** Which results are given for B1?
**A.** Kd (CXCL6): 7.28 nM; Kd (CXCL13): 39.5 nM; Kd (CXCL11): 12.4 nM; Kd (CXCL5): 21.1 nM; Kd (CXCL1): 3.09 nM; Kd [1]: 133 nM; Kd (CXCL3): 5.04 nM; Kd (CXCL2): 6.48 nM; Kd (CXCL4): 148 nM

**Q.** What does the source list for B2?
**A.** Kd (CXCL1): 59.6 nM; Kd (CXCL8): 12.3 nM

**Q.** For B3, which Kd (CXCL13) is on record?
**A.** 582 nM

**Q.** And the Kd (CXCL11)?
**A.** 7.73 nM

**Q.** And the Kd (CXCL5)?
**A.** 34.2 nM

**Q.** And the Kd (CXCL1)?
**A.** 9.99 nM

**Q.** What about the Kd [1] of the same binder?
**A.** 3120 nM

**Q.** What about the Kd (CXCL3) of the same binder?
**A.** 35.7 nM

**Q.** And the Kd (CXCL2)?
**A.** 24.8 nM

**Q.** And the Kd (CXCL4)?
**A.** 422 nM

**Q.** What does the source list for B4?
**A.** Kd (CXCL6): 34.3 nM; Kd (CXCL13): 220 nM; Kd (CXCL5): 24.5 nM; Kd (CXCL1): 14.4 nM; Kd (CXCL3): 43.7 nM; Kd (CXCL2): 82.3 nM; Kd (CXCL12): 67.8 nM

**Q.** B5 was tested. Which Kd (P1074_IXORI) did it give?
**A.** 157 nM

**Q.** With B6 as the binder, how does the Kd (CXCL1) read?
**A.** 27.3 nM

**Q.** Which results are given for B7?
**A.** Kd (CXCL6): 9.12 nM; Kd (CXCL11): 394 nM; Kd (CXCL7): 6.05 nM; Kd (CXCL5): 12.1 nM; Kd (CXCL1): 10.5 nM; Kd [1]: 7.9 nM; Kd (CXCL3): 13.3 nM; Kd (CXCL2): 5.11 nM; Kd (CXCL4): 393 nM

**Q.** B8 was tested. Which Kd (CXCL13) did it give?
**A.** 256 nM

**Q.** What about the Kd (CXCL5) of the same binder?
**A.** 26.4 nM

**Q.** And the Kd (CXCL1)?
**A.** 7.61 nM

**Q.** What about the Kd (CXCL3) of the same binder?
**A.** 8.84 nM

**Q.** What about the Kd (CXCL2) of the same binder?
**A.** 13.8 nM

**Q.** And the Kd (CXCL12)?
**A.** 212 nM

**Q.** With B9 as the binder, how does the Kd (P1074_IXORI) read?
**A.** 95.8 nM

**Q.** Which Kd (CXCL6) does the source give for B10 here?
**A.** 61 nM

**Q.** What about the Kd (CXCL13) of the same binder?
**A.** 1110 nM

**Q.** What about the Kd (CXCL5) of the same binder?
**A.** 55.1 nM

**Q.** And the Kd [1]?
**A.** 1260 nM

**Q.** What about the Kd (CXCL3) of the same binder?
**A.** 124 nM

**Q.** And the Kd (CXCL4)?
**A.** 2310 nM

**Q.** Which Kd (CXCL13) does the source give for B11 here?
**A.** 255 nM

**Q.** What about the Kd (CXCL11) of the same binder?
**A.** 16.7 nM

**Q.** What about the Kd (CXCL5) of the same binder?
**A.** 39.2 nM

**Q.** What about the Kd (CXCL1) of the same binder?
**A.** 6.35 nM

**Q.** What about the Kd (CXCL3) of the same binder?
**A.** 43.8 nM

**Q.** What about the Kd (CXCL2) of the same binder?
**A.** 68.3 nM

**Q.** With B12 as the binder, how does the Kd (CXCL5) read?
**A.** 59.3 nM

**Q.** And the Kd (CXCL1)?
**A.** 5.59 nM

**Q.** What about the Kd (CXCL2) of the same binder?
**A.** 26 nM

**Q.** What about the Kd (CXCL8) of the same binder?
**A.** 26.7 nM

**Q.** With B13 as the binder, how does the Kd (CXCL6) read?
**A.** 6.27 nM

**Q.** What about the Kd (CXCL11) of the same binder?
**A.** 322 nM

**Q.** What about the Kd (CXCL7) of the same binder?
**A.** 1.83 nM

**Q.** What about the Kd (CXCL5) of the same binder?
**A.** 9.81 nM

**Q.** What about the Kd (CXCL1) of the same binder?
**A.** 4.61 nM

**Q.** And the Kd [1]?
**A.** 7.46 nM

**Q.** What about the Kd (CXCL3) of the same binder?
**A.** 5.65 nM

**Q.** What about the Kd (CXCL2) of the same binder?
**A.** 2.14 nM

**Q.** And the Kd (CXCL4)?
**A.** 381 nM

**Q.** Which results are given for B14?
**A.** Kd [1]: 18.7 nM; Kd (CXCL3): 15.2 nM

**Q.** How did the Kd (CXCL6) turn out when B15 was run?
**A.** 15.2 nM

**Q.** And the Kd (CXCL11)?
**A.** 102 nM

**Q.** What about the Kd (CXCL5) of the same binder?
**A.** 50.8 nM

**Q.** What about the Kd (CXCL1) of the same binder?
**A.** 49.9 nM

**Q.** And the Kd [1]?
**A.** 380 nM

**Q.** And the Kd (CXCL3)?
**A.** 55.9 nM

**Q.** B16 was tested. Which Kd (CXCL6) did it give?
**A.** 2.82 nM

**Q.** What about the Kd (CXCL13) of the same binder?
**A.** 12.5 nM

**Q.** And the Kd (CXCL11)?
**A.** 3.85 nM

**Q.** What about the Kd (CXCL5) of the same binder?
**A.** 43 nM

**Q.** What about the Kd (CXCL1) of the same binder?
**A.** 3.55 nM

**Q.** What about the Kd [1] of the same binder?
**A.** 23.9 nM

**Q.** And the Kd (CXCL3)?
**A.** 7.67 nM

**Q.** What about the Kd (CXCL2) of the same binder?
**A.** 3.03 nM

**Q.** What does the source list for B17?
**A.** Kd (CXCL6): 1.03 nM; Kd (CXCL5): 24.9 nM; Kd (CXCL1): 5.73 nM; Kd (CXCL3): 7.37 nM; Kd (CXCL2): 7.49 nM; Kd (CXCL8): 2.57 nM

**Q.** Which Kd (P1074_IXORI) does the source give for B18 here?
**A.** 12 nM
